Test results as given in the RNAGym collection of RNA variant scans (doi:10.7554/elife.90254).

B1: OR4K15 (parent)
chain: GUUAACGGUCAUAGGCCAUGGAAACUAGGAGCACCAUUUCGCUGCCAGUGAAGAAAUGAACAAAGAAAAUCUGGGCCAGGCAGGCAUCAAAAGAAAUAGUCUUGCGCUCAACCAGAAAGUCUGUAAUCAUUUUAAGGGUA

Variants of: B1
Assay: self-cleavage, relative activity (ratio to wild type); higher = more cleavage; in vitro, sequencing; the parent is a self-cleaving ribozyme

| Variant | self-cleavage |
| --- | --- |
| A91U A92G | 1.04 |
| A92C A114G | 0.98 |
| A95G A140G | 1.73 |
| A95G A140U | 2.09 |
| A91G G119U | 0.81 |
| A98G | 0.44 |
| A98U | 2.22 |
| A98C | 0.96 |
| A92G U133C | 1.59 |
| A96G A116G | 0.98 |
| A95G G136U | 2.65 |
| A92U A118U | 0.74 |
| A96C A140U | 1.14 |
| A98U A135G | 2.4 |
| A94U A96G | 1.29 |
| A95U A118U | 0.6 |
| A95U A118G | 1.41 |
| A94U U124C | 1.66 |
| A91U G138A | 0.82 |
| A95U | 1.65 |
| A95C | 1.06 |
| A95G | 1.85 |
| A96U U108C | 0 |
| G93A A95G | 2.26 |

| Variant | self-cleavage |
| --- | --- |
| A98G A110G | 0.06 |
| A98G A110U | 0.31 |
| A96G | 1.37 |
| A96U | 1.88 |
| A96C | 0.82 |
| A94G A111U | 0.06 |
| U97C U124C | 0.17 |
| A95G A125U | 0.96 |
| A96G C107A | 0.01 |
| A96G G137U | 1.8 |
| A94C U103C | 0.38 |
| U97G U108C | 0 |
| U97G A98G | 1.98 |
| A94U U108C | 0.02 |
| A94G U130G | 1.09 |
| A96G G115A | 0.07 |
| A98U A118U | 1.62 |
| U97C U130C | 0.85 |
| A92G A140G | 1.69 |
| A96G A111C | 0.01 |
| A92G A135C | 0.84 |
| A92G A135G | 1.48 |
| A92G U132C | 1.35 |
| A94G U122C | 1.21 |

| Variant | self-cleavage |
| --- | --- |
| U97A U103A | 0.18 |
| U97A U103C | 1.63 |
| A98G U100C | 2.04 |
| A95G U108C | 0.01 |
| A96G U124A | 0.94 |
| U97C A116G | 0.77 |
| U97C A116U | 0.11 |
| U97A U122C | 1.83 |
| A96U U132C | 1.95 |
| U100A A140U | 0.83 |
| A92G A126U | 0.78 |
| A92G A126G | 1.18 |
| A94G U97A | 2.02 |
| A91G U102C | 1.94 |
| A91U U124A | 0.84 |
| A94G A114C | 0.05 |
| A94G A114U | 0.04 |
| U100A A118G | 0.47 |
| A96G U131G | 0.85 |
| A95G A129G | 2.42 |
| A91G A135U | 1.25 |
| U97C U131C | 0.72 |
| A95G U127C | 1.56 |
| A95U A117U | 0.55 |

| Variant | self-cleavage |
| --- | --- |
| A95U G104A | 0.05 |
| U97C A114U | 0.1 |
| A92U U127A | 1.77 |
| A98U U100C | 2.47 |
| A95G A118G | 0.75 |
| A95G A118U | 1.09 |
| A96G C113U | 0.06 |
| A98G U132A | 0.41 |
| A95U U103A | 0.6 |
| A95G A116G | 1.88 |
| A95G A116U | 0.45 |
| A96U A98G | 1.31 |
| A94G A98U | 2.36 |
| A96G A114U | 0.07 |
| A95G G115A | 0.19 |
| A98U A114G | 0.5 |
| A98U A114U | 0.12 |
| A92C G115A | 0.36 |
| A92U G104A | 0.01 |
| A94G A117U | 0.67 |
| A91U U103C | 0.51 |
| A91U A118U | 1.23 |
| U97A U130C | 1.59 |
| A91G U122G | 2.58 |

| Variant | self-cleavage |
| --- | --- |
| A91G U122A | 0.96 |
| A92U A96G | 1.85 |
| A95G U122C | 1.2 |
| A95G U122A | 1.78 |
| U97A A118G | 1.01 |
| U97C A126G | 1.22 |
| A98U U127C | 1.98 |
| A94C A116C | 0.25 |
| A92G A114C | 0.04 |
| A98G U130C | 0.41 |
| A96C C109U | 0.21 |
| U100A C105U | 0.03 |
| A92U A94G | 1.76 |
| A95G C107A | 0.02 |
| A95G C107U | 0.01 |
| G99A U103C | 0.07 |
| A98U A116U | 0.97 |
| A91U U120C | 1.64 |
| A96G A110G | 0.12 |
| A96G A110U | 1.53 |
| U97A A116G | 1.19 |
| A98C U122C | 2.2 |
| A95G A98G | 1.49 |
| A91U A126U | 1.56 |

| Variant | self-cleavage |
| --- | --- |
| A95G G123A | 1.22 |
| A92G U103A | 0.8 |
| A96G U102G | 1.08 |
| A96G U102A | 1.52 |
| A96G U102C | 2.33 |
| A95G U131C | 1.46 |
| A96G A140U | 1.93 |
| U97C U122G | 2.57 |
| U97C U122A | 1.65 |
| A98G A114G | 0.15 |
| A95G U102C | 2.62 |
| A95G U102A | 2.24 |
| U97A A126U | 1.01 |
| A98U U120C | 1.65 |
| A95U A126G | 1.55 |
| A92U A129G | 1.13 |
| A92U A129U | 1 |
| A92G A111G | 0.02 |
| A98G C109A | 0.03 |
| A98C U100C | 2.44 |
| A96G U133C | 1.82 |
| A96C U122A | 0.42 |
| A98G G138U | 0.6 |
| A95G U103A | 1.55 |

| Variant | self-cleavage |
| --- | --- |
| A96G G106A | 0.01 |
| U97C G136U | 1.55 |
| U97G U132C | 1.54 |
| A92G U122C | 1.19 |
| A98U A126G | 1.86 |
| A95C G137U | 1.17 |
| A96G U139C | 1.42 |
| A91U A117U | 1.15 |
| A92U A117G | 2.08 |
| A98G U131C | 0.49 |
| A95C A140G | 0.98 |
| U97C U108C | 0.04 |
| U97C U108A | 0 |
| U97A U127C | 1.36 |
| A94G C107G | 0.01 |
| A98U G104A | 0.12 |
| A96U A117G | 1.75 |
| A95G U100A | 1.26 |
| A95G U100C | 2.52 |
| U97C U100C | 2.15 |
| G93A U102A | 2.2 |
| A92G U127A | 2.33 |
| U97A A135G | 1.79 |
